From article PMC11475020

Target: T1, IscR-His (Caulobacter crescentus NA1000) (UniProt A0A0H3C7T4)
T1 sequence: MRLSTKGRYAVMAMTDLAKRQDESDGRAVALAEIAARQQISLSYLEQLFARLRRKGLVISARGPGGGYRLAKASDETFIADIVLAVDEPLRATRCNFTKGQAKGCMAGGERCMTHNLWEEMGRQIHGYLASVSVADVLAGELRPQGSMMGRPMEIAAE
Test: EMSA
Conditions: 10 mM HEPES, 40 mM KCl, 1 mM MgCl2, 1 mM MnCl2, 5% glycerol, 0.1 mg/ml salmon sperm DNA, 500 ng probe, pH not stated, 30 min room temperature

In the case of “AAACCACTCCCGGAATCACGCGCAGATCGGAAGGGACACACAGGTTCCGCCTCCGCGCCGCGTACCACCCTGAACGACTGGAGGGGGGCGACCGGCCGCTTCTTAGCGCCGCCGTCGACCAACGTCCATGTCACGTGCGGGGTCTTGGCGTGTTGAGAGCTGTTCTCATTAAGGATCTGGCGATTTCGCGCGGTGAGCGAACGCTGTTTTC (double strand) [acn regulatory region]”, the binding is reported as “binds”.
